From article doi:10.1101/2025.04.23.650173 (bioRxiv, 2025)
Where two headings read alike, the source gives them in different places.

Experiments:
AUC [1] = molecular target: the molecule itself; test: AUC
AUC [2] = molecular target: the molecule itself; test: AUC; remark: listed apart in the source

B1: wild type murine CXCL4 (natural protein, mouse, UniProt Q9Z126 30-105, looked up)
chain: VTSAGPEESDGDLSCVCVKTISSGIHLKHITSLEVIKAGRHCAVPQLIATLKNGRKICLDRQAPLYKKVIKKILES
stoichiometry N (AUC [1]): 4 | stoichiometry N (AUC [2]): 2
